Values quoted from earlier work, collected in PMC4554539.

Legend:
[1] = target: IL18 receptor (Homo sapiens) (UniProt Q13478); assay: binding to transfected COS-1 cells
[2] = target: IL18 receptor (Homo sapiens) (UniProt Q13478); assay: binding to L428 cells

Chain of IL18 (Q14116 37-193): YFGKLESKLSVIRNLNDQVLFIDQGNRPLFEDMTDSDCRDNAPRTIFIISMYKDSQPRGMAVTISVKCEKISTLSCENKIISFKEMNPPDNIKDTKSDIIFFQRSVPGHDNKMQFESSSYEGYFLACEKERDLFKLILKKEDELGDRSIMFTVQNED
Chain of IL18 receptor (Homo sapiens) (Q13478 19-541): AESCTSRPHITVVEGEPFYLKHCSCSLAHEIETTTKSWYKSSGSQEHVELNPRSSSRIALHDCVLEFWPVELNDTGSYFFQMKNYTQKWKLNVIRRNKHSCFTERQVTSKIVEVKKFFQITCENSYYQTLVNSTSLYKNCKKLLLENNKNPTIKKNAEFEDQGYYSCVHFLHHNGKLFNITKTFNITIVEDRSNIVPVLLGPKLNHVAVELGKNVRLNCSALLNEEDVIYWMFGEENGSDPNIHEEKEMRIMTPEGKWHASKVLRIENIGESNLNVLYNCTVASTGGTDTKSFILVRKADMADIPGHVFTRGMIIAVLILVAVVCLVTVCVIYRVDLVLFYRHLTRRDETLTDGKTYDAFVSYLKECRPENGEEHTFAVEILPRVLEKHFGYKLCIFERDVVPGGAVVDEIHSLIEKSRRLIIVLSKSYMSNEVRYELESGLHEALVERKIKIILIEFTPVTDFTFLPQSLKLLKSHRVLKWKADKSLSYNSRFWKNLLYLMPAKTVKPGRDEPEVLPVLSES

Kd [1]: 46 nM | Kd [2]: 18.5 nM
Substance: IL18 (from UniProt Q14116)
